The source of these data is patent US6613746.

Bounds are passed on as bounds.

Experiment [1] has as its target ELAM-Rg, soluble ELAM-1-IgG1 chimera (ELAM-1 extracellular domain fused to hinge, CH2 and CH3 domains of human IgG1) (human) (UniProt P16581). In words: inhibition of adhesion of myeloid HL60 cells to immobilized ELAM-1, fusion protein at about 50 µg/ml.
For experiment [2] the target is unchanged. The experiment is described as follows: inhibition of adhesion of human T lymphocytes to immobilized ELAM-1, fusion protein at about 50 µg/ml.

Sequence of ELAM-Rg, soluble ELAM-1-IgG1 chimera (ELAM-1 extracellular domain fused to hinge, CH2 and CH3 domains of human IgG1) (human) (P16581 22-556 limits assumed, stated change not applied): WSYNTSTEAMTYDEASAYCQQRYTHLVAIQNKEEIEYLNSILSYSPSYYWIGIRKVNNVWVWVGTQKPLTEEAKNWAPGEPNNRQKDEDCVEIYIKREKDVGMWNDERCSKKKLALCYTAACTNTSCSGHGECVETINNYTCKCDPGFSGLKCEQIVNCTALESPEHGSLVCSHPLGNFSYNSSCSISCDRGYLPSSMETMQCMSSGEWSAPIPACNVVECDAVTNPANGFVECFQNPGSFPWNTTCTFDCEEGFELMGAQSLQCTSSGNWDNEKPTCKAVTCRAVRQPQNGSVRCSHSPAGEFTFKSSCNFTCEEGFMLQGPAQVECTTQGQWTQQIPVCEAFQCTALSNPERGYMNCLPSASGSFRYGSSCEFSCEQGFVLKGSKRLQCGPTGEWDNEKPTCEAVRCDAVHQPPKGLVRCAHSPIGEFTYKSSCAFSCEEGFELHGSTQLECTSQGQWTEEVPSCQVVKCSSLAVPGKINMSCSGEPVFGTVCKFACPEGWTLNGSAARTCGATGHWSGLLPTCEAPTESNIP

Turning to “α1-AGP-IgG1 fusion protein (α1-AGP-Hinge-CH2-CH3) produced in COS cells (Fc fusion)”, the inhibition of adhesion in experiment [1] and in experiment [2] was > 50% in each case.
